Reference: patent US20250387497A1, “MULTIVALENT MULTISPECIFIC CONJUGATES AND RELATED COMPOSITIONS AND METHODS OF USE” (Purdue Research Foundation, priority 2022, published 2025)

B1: YHWYGYTPQNVIGRAQGKAQGKLAKLAKKLAKLAKGQAKGQARGFCGDGFYACY MDVGKQAGRQAGVSPPLTLGQLLSGQRAGQKAG (peptide)
chain: YHWYGYTPQNVIGRAQGKAQGKLAKLAKKLAKLAKGQAKGQARGFCGDGFYACYMDVGKQAGRQAGVSPPLTLGQLLSGQRAGQKAG
modifications: HA tag; MV-MS conjugate; P1 conjugate sequence: E-I-H-F
B2: FCGDGFYACYMDVGRAQGKAQGYHWYGYTPQNVIGQAKGQARGVSPPLTLGQLLSG KQAGRQAGKLAKLAKKLAKLAKGQRAGQKAG (peptide)
chain: FCGDGFYACYMDVGRAQGKAQGYHWYGYTPQNVIGQAKGQARGVSPPLTLGQLLSGKQAGRQAGKLAKLAKKLAKLAKGQRAGQKAG
modifications: HA tag; MV-MS conjugate; P2 conjugate sequence: H-E-F-I

Columns and labels:
T24 cells = experiment: Binding and internalization of P1/P2 peptides, anti-HA immunofluorescence, T24 cells; assay type: cell-based; conditions: human T24 cells
Source text: (§1) Arrows and arrowheads point to examples of internalized peptide in endosomal and late compartments, respectively.
(§2) The tested conjugates targeted bladder cancer cells and were internalized. See Coon et al. (2012), supra, for description of methodologies. See, e.g., FIGS. 3D and 3E. Given interspecies receptor conservation, the conjugates targeted cells of human, mouse and canine origin (FIG. 3D), and were internalized in GFP-Rab5-positive endosomes (see, e.g., FIG. 3D, mid-panel set) in a time-dependent manner (FIG. 3E).

[1] = tested on: cells isolated from spontaneous dog tumors and immortalized; experiment: Binding and internalization of P1/P2 peptides, anti-HA immunofluorescence, canine bladder tumor cells; assay type: cell-based
Source text: as §1, §2

MB49 cells = experiment: Binding and internalization of P1/P2 peptides, anti-HA immunofluorescence, MB49 cells; assay type: cell-based; conditions: mouse MB49 cells (LE and WT)
Procedure: as §1
After five minutes, internalized peptide was localized to peripheral early endosomes (arrowheads) and after 45 minutes accumulated in late endosomes/lysosomes (arrows).
FIGS. 3F-3G show the amount of cell-associated peptide as a function of time as estimated by quantitative microscopy (FIG. 3F) and as a function of dose by quantitative Western blot (FIG. 3G) with anti-HA antibodies (upper panel) followed by band densitometry of triplicates (lower panel).
as §2

normal urothelium = experiment: P2 binding/uptake in cultured normal urothelium cells, anti-HA immunostaining; assay type: cell-based; conditions: different P2 concentrations
Procedure: (§3) FIGS. 4A and 4B show images of immunostaining with an anti-HA antibody of normal (FIG. 4A) and MB49 wild type cancer (FIG. 4B) cells incubated with the highest concentration of P2 conjugates used.
(§4) Normal (labeled A) and MB49 wild type cancer (labeled B) cells isolated from bladder urothelium were disaggregated and cultured in vitro. Cultured cells were incubated with different concentrations of the P2 MV-MS conjugate and the presence of cell-bound peptide was investigated by immunostaining with an anti-HA antibody using the methodologies described in Example 1.

[2] = tested on: MB49 wild type cancer cells; experiment: P2 binding in cultured MB49 wild type cancer cells, anti-HA immunostaining; assay type: cell-based, mouse; conditions: MB49 wild type cancer cells versus normal urothelium cells
Procedure: as §3, §4

| Molecule | binding and internalization of peptide (T24 cells) | binding and internalization of peptide [1] | binding and internalization of peptide (MB49 cells) | binding or uptake to normal urothelium (normal urothelium) | selectivity for cancer cells [2] |
| --- | --- | --- | --- | --- | --- |
| B1 | bound and internalized | bound and internalized | bound and internalized |  |  |
| B2 | bound and internalized | bound and internalized | bound and internalized | no detectable binding or uptake | marked selectivity for cancer cells |
